Source: article PMC7351759, “Nuclear moonlighting of cytosolic glyceraldehyde-3-phosphate dehydrogenase regulates Arabidopsis response to heat stress” (Nature Communications, 2020)

How the values were obtained:
Settings in all cases: both partners purified
GAPC2-Flag (cytosolic …) = target: T1, GAPC2-Flag (cytosolic glyceraldehyde-3-phosphate dehydrogenase 2) (Arabidopsis, UniProt Q9FX54 1-338); test: co-IP; GAPC1-Flag or GAPC2-Flag purified from Arabidopsis mixed with purified NF-YC10-6xHis; IP with anti-Flag antibody and Protein A-agarose, overnight at 4 °C, buffer A (20 mM NaH2PO4 pH 8.0, 150 mM NaCl); blot with anti-6xHis antibody
T1 construct: Cytosolic glyceraldehyde-3-phosphate dehydrogenase GAPC2 of Arabidopsis; CaMV-35S promoter; source: Arabidopsis overexpressing GAPC2-Flag, purified with an anti-Flag antibody and Protein A-agarose

GAPC1-Flag (cytosolic …) = target: T2, GAPC1-Flag (cytosolic glyceraldehyde-3-phosphate dehydrogenase 1) (Arabidopsis, UniProt P25858 1-338); test: as above
T2 construct: Cytosolic glyceraldehyde-3-phosphate dehydrogenase GAPC1 of Arabidopsis; CaMV-35S promoter; source: Arabidopsis overexpressing GAPC1-Flag, purified with an anti-Flag antibody and Protein A-agarose

GAPC2-6xHis = target: T3, GAPC2-6xHis (Arabidopsis, UniProt Q9FX54 1-338); test: co-IP; purified GAPC2-6xHis or GAPC2mut’-6xHis mixed with NF-YC10-6xHis-STREP; IP with anti-STREP antibody, blot with anti-6xHis antibody
T3 construct: Cytosolic glyceraldehyde-3-phosphate dehydrogenase GAPC2 of Arabidopsis; source: purified
T3 sequence (Q9FX54 whole entry): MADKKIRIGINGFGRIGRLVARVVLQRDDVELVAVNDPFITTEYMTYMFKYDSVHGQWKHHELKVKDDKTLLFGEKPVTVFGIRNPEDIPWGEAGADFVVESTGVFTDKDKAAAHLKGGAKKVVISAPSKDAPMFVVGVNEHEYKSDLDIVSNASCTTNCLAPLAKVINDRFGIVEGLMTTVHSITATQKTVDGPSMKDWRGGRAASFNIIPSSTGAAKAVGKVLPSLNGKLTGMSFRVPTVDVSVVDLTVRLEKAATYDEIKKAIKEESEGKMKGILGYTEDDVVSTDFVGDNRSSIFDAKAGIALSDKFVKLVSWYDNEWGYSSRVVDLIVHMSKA

T2 sequence (P25858 whole entry): as the sequence (Q9FX54 whole entry) above, with H61N, V65I, D68E, G92A, F98Y, S227A, M274L counted along it
T1 sequence (Q9FX54 whole entry): as the sequence (Q9FX54 whole entry) above

B1: NF-YC10-6xHis (natural protein, Arabidopsis, UniProt Q58CM8 1-195, looked up)
chain: MRRPKSSHVRMEPVAPRSHNTMPMLDQFRSNHPETSKIEGVSSLDTALKVFWNNQREQLGNFAGQTHLPLSRVRKILKSDPEVKKISCDVPALFSKACEYFILEVTLRAWMHTQSCTRETIRRCDIFQAVKNSGTYDFLIDRVPFGPHCVTHQGVQPPAEMILPDMNVPIDMDQIEEENMMEERSVGFDLNCDLQ
notes: Nuclear factor Y subunit C10, cloned from Arabidopsis; also called recombinant NF-YC10
binding result (GAPC2-Flag (cytosolic …)): binds
binding result (GAPC1-Flag (cytosolic …)): binds

B2: NF-YC10-6xHis-STREP (natural protein, Arabidopsis, UniProt Q58CM8 1-195, looked up)
chain: MRRPKSSHVRMEPVAPRSHNTMPMLDQFRSNHPETSKIEGVSSLDTALKVFWNNQREQLGNFAGQTHLPLSRVRKILKSDPEVKKISCDVPALFSKACEYFILEVTLRAWMHTQSCTRETIRRCDIFQAVKNSGTYDFLIDRVPFGPHCVTHQGVQPPAEMILPDMNVPIDMDQIEEENMMEERSVGFDLNCDLQ
notes: Nuclear factor Y subunit C10 of Arabidopsis
binding result (GAPC2-6xHis): binds
